Values of other authors, collected in patent US20090215646A1, “SYSTEM AND METHOD OF ANALYTE DETECTION USING DIFFERENTIAL RECEPTORS” (The Board of Regents of the University of Texas Sy, priority 2005, published 2009).

B1: Ovalbumin: glycoprotein analyte obtained commercially (protein, UniProt P01012 2-386, looked up)
Ovalbumin: GSIGAASMEFCFDVFKELKVHHANENIFYCPIAIMSALAMVYLGAKDSTRTQINKVVRFDKLPGFGDSIEAQCGTSVNVHSSLRDILNQITKPNDVYSFSLASRLYAEERYPILPEYLQCVKELYRGGLEPINFQTAADQARELINSWVESQTNGIIRNVLQPSSVDSQTAMVLVNAIVFKGLWEKAFKDEDTQAMPFRVTEQESKPVQMMYQIGLFRVASMASEKMKILELPFASGTMSMLVLLPDEVSGLEQLESIINFEKLTEWTSSNVMEERKIKVYLPRMKMEEKYNLTSVLMAMGITDVFSSSANLSGISSAESLKISQAVHAAHAEINEAGREVVGSAEAGVDAASVSEEFRADHPFLFCIKHIATNAVLFFGRCVSP

Settings: isoelectric point

Molecule	pI
Fetuin: glycoprotein analyte obtained commercially	4.5-4.9
Lysozyme: protein analyte obtained commercially	9.6-11
B1	4.6
